# US20220089743A1 (Chugai, published 2022)
# Positions count from the first letter of the chain named. Where two headings read alike, the source gives them in different places.
# B1: DQN0344H0976/L0591//DQN0385H1270/L0681-F6 (bispecific antibody)
# heavy 1: QVQLVESGGGVVQPGGSLRLSCAASGFTFSSAYWMVWVRQAPGQGLEWMGAVYGGSDTTYYAKWTEGRFTISRDTSKNTLYLQMNSLRAEDTAVYYCAREPLNYYYYGELNLWGQGTLVTVSSASTKGPSVFPLAPSSKSTSGGTAALGCLVKDYFPEPVTVSWNSGALTSGVHTFPAVLKSSGLYSLSSVVTVPSSSLGTQTYICNVNHKPSNTKVDKRVEPKSCDKTHTCPPCPAPELRRGPSVFLFPPKPKDTLMISRTPEVTCVVVDVSHEDPEVKFNWYVDGVEVHNAKTKPREEQYNSTYRVVSVLTVLHQDWLNGKEYKCKVSNKALPAPIEKTISKAKGQPREPQVYTLPPSREEMTKNQVSLTCLVKGFYPSDIAVEWESNGQPENNYKTTPPYLDSDGSFFLYSKLTVDKSRWQEGNVFSCSVLHEALHAHYTREELSLSP
# light 1: DIQMTQSPSSLSASVGDRVTITCQATEEIYSGLAWYQQKPGKAPKLLIYYVSTLYEGIPARFSGSGSGTDFTLTISSLEPEDFAVYYCQTYEDVSAVTFGQGTKVEIKRTVAAPSVFIFPPSDEQLKSGTAEVVCLLNNFYPREAKVQWKVDNALQSGNSEESVTEQDSKDSTYSLSSTLTLSKADYEKHKVYACEVTHQGLSSPVTKSFNRGEC
# heavy 2: QVQLVESGGGVVQPGRSLRLSCAASGFTFSEWYFMSWVRQAPGKGLEWVASIDTGSGSIDYAEWVEGRFTISRDNSKNTLYLQMNSLRAEDTAVYYCARDIGIDYNFWGPGTLVTVSSASTKGPSVFPLAPSSKSTSGGTAALGCLVEDYFPEPVTVSWNSGALTSGVHTFPAVLESSGLYSLSSVVTVPSSSLGTKTYICNVNHKPSNTKVDKRVEPKSCDKTHTCPPCPAPELRRGPSVFLFPPKPKDTLMISRTPEVTCVVVDVSHEDPEVKFNWYVDGVEVHNAKTKPREEQYNSTYRVVSVLTVLHQDWLNGKEYKCKVSNKALPAPIEKTISKAKGQPREPQVYTLPPSRKEMTKNQVSLTCLVKGFYPSDIAVEWESNGQPENNYKTTPPYLDSDGSFFLYSKLTVDKSRWQQGNVFSCSVLHEALHAHYTRKELSLSP
# light 2: DIQMTQSPSSLSASVGDRVTITCQTTQSISSYLNWYQQKPGQPPKLLIYYASTKAEGIPARFSGSGLGTDFTLTISSLEPEDFAVYYCHYGISKVSFGQGTKVEIKRTVAAPSVFIFPPSDEQLKSGTAKVVCLLNNFYPREAKVQWKVDNALQSGNSKESVTEQDSKDSTYSLSSTLTLSKADYEKHKVYACEVTHQGLSSPVTKSFNRGEC
# B2: DQN0344H0976/L0591//DQN0385H1255/L0605-F6 (bispecific antibody)
# heavy 1: B1 heavy 1
# light 1: B1 light 1
# heavy 2: B1 heavy 2 with E63G, G67E
# light 2: B1 light 2 with L67S
# B3: DQN0344H1013/L0620//DQN0385H1270/L0681-F6 (bispecific antibody)
# heavy 1: B1 heavy 1 with G16R, L112V
# light 1: B1 light 1 with E28N, Y55A, E56Y
# heavy 2: B1 heavy 2
# light 2: B1 light 2
# B4: DQN0344H0976/L0591//DQN0385H1270/L0722-F6 (bispecific antibody)
# heavy 1: B1 heavy 1
# light 1: B1 light 1
# heavy 2: B1 heavy 2
# light 2: B1 light 2 with E79Q
# B5: DQN0344H0976/L0591//DQN0385H1527/L0605-F6 (bispecific antibody)
# heavy 1: B1 heavy 1
# light 1: B1 light 1
# heavy 2: B1 heavy 2 with S30A, E31S
# light 2: B1 light 2 with L67S
# B6: DQN0344H0976/L0591//DQN0385H1352/L0681-F6 (bispecific antibody)
# heavy 1: B1 heavy 1
# light 1: B1 light 1
# heavy 2: B1 heavy 2 with T28E
# light 2: B1 light 2
# B7: DQN0344H0976/L0591//DQN0385H1255/L0605-F6.v2 (bispecific antibody, V domains shown)
# VH 1: QVQLVESGGGVVQPGGSLRLSCAASGFTFSSAYWMVWVRQAPGQGLEWMGAVYGGSDTTYYAKWTEGRFTISRDTSKNTLYLQMNSLRAEDTAVYYCAREPLNYYYYGELNLWGQGTLVTVSS
# VL 1: DIQMTQSPSSLSASVGDRVTITCQATEEIYSGLAWYQQKPGKAPKLLIYYVSTLYEGIPARFSGSGSGTDFTLTISSLEPEDFAVYYCQTYEDVSAVTFGQGTKVEIK
# VH 2: QVQLVESGGGVVQPGRSLRLSCAASGFTFSEWYFMSWVRQAPGKGLEWVASIDTGSGSIDYAGWVEERFTISRDNSKNTLYLQMNSLRAEDTAVYYCARDIGIDYNFWGPGTLVTVSS
# VL 2: DIQMTQSPSSLSASVGDRVTITCQTTQSISSYLNWYQQKPGQPPKLLIYYASTKAEGIPARFSGSGSGTDFTLTISSLEPEDFAVYYCHYGISKVSFGQGTKVEIK
# Assays:
# Experiment in all cases: cell-based or functional assay
# [1] = biological target: T1, HLA-DQ2.5 on IHW09023 cells loaded with gamma 1 gliadin peptide (human; wheat)
# [2] = biological target: T2, HLA-DQ2.5 on IHW09023 cells loaded with gamma 4d gliadin peptide (human; wheat)
# [3] = biological target: T3, HLA-DQ2.5 on IHW09023 cells loaded with 33 mer gliadin peptide (human; wheat)
# [4] = biological target: T4, HLA-DQ2.5 on IHW09023 cells loaded with gamma 4a gliadin peptide (human; wheat)
# [5] = biological target: T5, HLA-DQ2.5 on IHW09023 cells loaded with omega1/2 gliadin peptide (human; wheat)
# [6] = biological target: T6, HLA-DQ2.5 on IHW09023 cells loaded with BC hordein peptide (human; barley)
# [7] = biological target: T7, HLA-DQ2.5 on IHW09023 cells loaded with gamma 3 gliadin peptide (human; wheat)
# [8] = biological target: T8, HLA-DQ2.5 on IHW09023 cells loaded with gamma 2 gliadin peptide (human; wheat)
# [9] = biological target: HLA-DQ2.2 on HBBB2.2 cells loaded with 33 mer gliadin peptide (human; wheat)
# [10] = biological target: T1, HLA-DQ2.5 on IHW09023 cells loaded with …; remark: listed apart in the source
# [11] = biological target: T2, HLA-DQ2.5 on IHW09023 cells loaded with …; remark: listed apart in the source
# [12] = biological target: T3, HLA-DQ2.5 on IHW09023 cells loaded with …; remark: listed apart in the source
# [13] = biological target: T4, HLA-DQ2.5 on IHW09023 cells loaded with …; remark: listed apart in the source
# [14] = biological target: T5, HLA-DQ2.5 on IHW09023 cells loaded with …; remark: listed apart in the source
# [15] = biological target: T6, HLA-DQ2.5 on IHW09023 cells loaded with …; remark: listed apart in the source
# [16] = biological target: T7, HLA-DQ2.5 on IHW09023 cells loaded with …; remark: listed apart in the source
# [17] = biological target: T8, HLA-DQ2.5 on IHW09023 cells loaded with …; remark: listed apart in the source
Binder,"IC50, γ1 gliadin TCR, 250 nM γ1 gliadin [1] [ng/mL]","IC50, γ4d gliadin TCR, 100 µM γ4d gliadin [2] [ng/mL]","IC50, α1b gliadin TCR, 250 nM 33mer gliadin [3] [ng/mL]","IC50, α2 gliadin TCR, 250 nM 33mer gliadin [3] [ng/mL]","IC50, γ4a gliadin TCR, 25 µM γ4a gliadin [4] [ng/mL]","IC50, ω1 gliadin TCR, 25 µM ω1/2 gliadin [5] [ng/mL]","IC50, ω2 gliadin TCR, 250 nM ω1/2 gliadin [5] [ng/mL]","IC50, BC hordein TCR, 250 nM BC hordein [6] [ng/mL]","IC50, γ3 gliadin TCR, 100 µM γ3 gliadin [7] [ng/mL]","IC50, γ2 gliadin TCR, 250 nM γ2 gliadin [8] [ng/mL]","IC50, α1a gliadin TCR, 250 nM 33mer gliadin [3] [ng/mL]",also measured
B1,1.05,11.8,1.36,0.34,749,2.07,0.26,12,2.4,182,–,–
B2,0.91,12.4,2.66,0.56,1430,2.62,0.25,13.6,2.31,440,0.49,–
B3,1.11,13.1,1.78,0.33,1160,2.51,0.2,7.54,2.63,322,0.38,–
B4,0.66,16.3,1.41,0.31,726,2.55,0.26,13.2,2.88,281,0.38,–
B5,0.59,11.4,1.84,0.51,1210,3.25,0.3,6.54,2.09,637,0.7,–
B6,1.11,9.82,1.37,0.31,802,1.48,0.24,10.8,2.99,284,0.29,–
B7,–,–,–,–,–,–,–,–,–,–,–,"IC50, HLA-DQ2.2, α1a gliadin TCR, 25 µM 33mer gliadin [9]: 1.72 ng/mL; IC50, HLA-DQ2.2, α2 gliadin TCR, 1 µM 33mer gliadin [9]: 9.48 ng/mL; IC50, γ1 gliadin TCR, 250 nM γ1 gliadin [10]: 1.62 ng/mL; IC50, γ4d gliadin TCR, 100 µM γ4d gliadin [11]: 8.69 ng/mL; IC50, α1a gliadin TCR, 250 nM 33mer gliadin [12]: 0.46 ng/mL; IC50, α1b gliadin TCR, 250 nM 33mer gliadin [12]: 1.33 ng/mL; IC50, α2 gliadin TCR, 250 nM 33mer gliadin [12]: 0.29 ng/mL; IC50, γ4a gliadin TCR, 25 µM γ4a gliadin [13]: 636 ng/mL; IC50, ω1 gliadin TCR, 25 µM ω1/2 gliadin [14]: 1.62 ng/mL; IC50, ω2 gliadin TCR, 250 nM ω1/2 gliadin [14]: 0.18 ng/mL; IC50, BC hordein TCR, 250 nM BC hordein [15]: 9.52 ng/mL; IC50, γ3 gliadin TCR, 100 µM γ3 gliadin [16]: 1.55 ng/mL; IC50, γ2 gliadin TCR, 250 nM γ2 gliadin [17]: 252 ng/mL"
